In the RNAGym collection of RNA variant scans (doi:10.7554/elife.80360) one finds self-cleavage data, which are given here for 167 variants.

To fix the notation:
B1: HDV Ribozyme (parent)
chain: GGCCGGCAUGGUCCCAGCCUCCUCGCUGGCGCCGGCUGGGCAACAUUCCGAGGGGACCGUCCCCUCGGUAAUGGCGAAUGGGACCCA

The variants in this data set derive from B1. Briefly: self-cleavage, relative activity (ratio to wild type); higher = more cleavage; co-transcriptional.
For A16C C61G, the self-cleavage stood at 0.7.

As for A16C C61A, the self-cleavage stood at 0.332.

A16C A87U: the self-cleavage turned out to be 0.615.

For A16C A87C, the self-cleavage came to 0.671.

Regarding C15U U20G, the self-cleavage was 0.166.

C15U U20A: the self-cleavage amounted to 0.0692.

Turning to C15U U20C, the self-cleavage was found to be 0.

On to A16G C18A, for which the self-cleavage was found to be 0.161.

In the case of A16G C18U, the self-cleavage was found to be 0.554.

As to C15U U23G, the self-cleavage was 0.415.

With C15U U23A, the self-cleavage was determined as 0.831.

As for C15U U23C, the self-cleavage was determined as 1.11.

Consider A16C U23A, for which the self-cleavage is 0.89.

Take A16G A77U: the self-cleavage came out at 0.266.

For A16G G25C, the self-cleavage was 0.166.

Take A16C A71C: the self-cleavage was 0.492.

With C15U A70C, the self-cleavage is 0.776.

Turning to C15U A70G, the self-cleavage is 1.07.

With A16C C66U, the self-cleavage is 0.982.

On to A16C C66A, for which the self-cleavage amounted to 0.718.

As for C15U G81C, the self-cleavage was determined as 0.317.

In the case of C15U C86U, the self-cleavage stood at 0.895.

As for C15U C86A, the self-cleavage is 1.1.

Turning to C15U C86G, the self-cleavage came out at 0.91.

Regarding A16C U60G, the self-cleavage turned out to be 0.939.

Turning to C15U G55U, the self-cleavage came to 0.729.

C15U A87G: the self-cleavage was found to be 1.05.

In the case of C15U A87U, the self-cleavage amounted to 0.993.

For the variant C15U C22A, the self-cleavage turned out to be 0.113.

Turning to C15U C22U, the self-cleavage came out at 0.35.

Turning to A16C A45G, the self-cleavage was determined as 1.05.

Turning to A16C A45C, the self-cleavage was found to be 0.35.

Regarding A16C A45U, the self-cleavage was 0.332.

Regarding A16C U27A, the self-cleavage was 0.684.

With C15U G80U, the self-cleavage was 0.526.

On to C15U G80A, for which the self-cleavage was found to be 0.992.

As to C15U G38U, the self-cleavage came to 0.259.

In the case of C15U G38C, the self-cleavage was determined as 0.17.

For the variant C15U G38A, the self-cleavage was 0.188.

As for A16C C44U, the self-cleavage is 0.35.

For A16C C44A, the self-cleavage is 0.289.

In the case of A16C C44G, the self-cleavage came out at 0.317.

For C15U A42U, the self-cleavage is 0.322.

Take C15U A42C: the self-cleavage worked out at 0.161.

C15U A42G: the self-cleavage was 0.246.

Take A16C C24U: the self-cleavage amounted to 0.287.

Regarding A16C C24G, the self-cleavage was determined as 0.0692.

Turning to A16C C24A, the self-cleavage came to 0.277.

For the variant C15G G80C, the self-cleavage was 0.88.

With C15G G80U, the self-cleavage amounted to 0.73.

On to C15G G80A, for which the self-cleavage turned out to be 0.635.

As for A16G C19A, the self-cleavage is 0.237.

Take A16G C19U: the self-cleavage turned out to be 0.178.

Take A16G C19G: the self-cleavage came out at 0.151.

In the case of A16C C30U, the self-cleavage stood at 0.449.

On to A16C U65A, for which the self-cleavage was 0.65.

As for A16C U65G, the self-cleavage was 0.755.

Take A16C C62U: the self-cleavage came out at 0.804.

With A16C C62A, the self-cleavage stood at 0.917.

Consider A16C G29A, for which the self-cleavage was determined as 0.116.

Take A16C C85U: the self-cleavage turned out to be 0.795.

As to A16C C85G, the self-cleavage is 0.95.

Turning to A16C C85A, the self-cleavage was determined as 0.875.

Consider C15G U79A, for which the self-cleavage was 0.312.

For C15U C58A, the self-cleavage is 0.997.

With A16C G74U, the self-cleavage was 0.415.

For A16C G74A, the self-cleavage worked out at 0.0692.

With A16C G74C, the self-cleavage was found to be 0.185.

A16C C86G: the self-cleavage is 0.653.

Take A16C C86U: the self-cleavage stood at 0.739.

Consider C15G G82C, for which the self-cleavage was 0.111.

With C15U G59A, the self-cleavage was found to be 0.851.

On to C15U G59C, for which the self-cleavage is 1.13.

On to A16C G73C, for which the self-cleavage was determined as 0.217.

In the case of A16C G73A, the self-cleavage is 0.504.

As for A16C G73U, the self-cleavage was determined as 0.128.

As for A16C, the self-cleavage worked out at 0.838.

As to A16G, the self-cleavage was determined as 1.07.

For A16C A70U, the self-cleavage worked out at 0.415.

C15U G25U: the self-cleavage turned out to be 0.0875.

For the variant C15U G25C, the self-cleavage is 0.0723.

As for C15U G40C, the self-cleavage came out at 0.249.

Regarding C15U G40A, the self-cleavage is 0.972.

For C15U G40U, the self-cleavage worked out at 0.791.

C15U C36G: the self-cleavage was 0.128.

Regarding C15U C19A, the self-cleavage worked out at 0.128.

In the case of C15U G50C, the self-cleavage was 0.831.

Take C15U G50U: the self-cleavage is 0.991.

As to C15G G52U, the self-cleavage came out at 0.684.

For the variant A16G C63U, the self-cleavage is 0.997.

Consider C15U C21U, for which the self-cleavage worked out at 0.17.

In the case of C15U C21A, the self-cleavage stood at 0.

With C15U G31A, the self-cleavage stood at 0.302.

Regarding C15G C75G, the self-cleavage amounted to 0.192.

As for C15G C75A, the self-cleavage was found to be 0.

As for C15U G35U, the self-cleavage turned out to be 0.252.

On to A16G A56C, for which the self-cleavage turned out to be 0.862.

On to A16G A56U, for which the self-cleavage came to 1.25.

Take A16G A71G: the self-cleavage amounted to 0.748.

With A16C G39A, the self-cleavage is 0.156.

In the case of A16C G39U, the self-cleavage came out at 0.244.

As for A16C G39C, the self-cleavage amounted to 0.0831.

For C15U G73U, the self-cleavage is 0.269.

For the variant A16C G82C, the self-cleavage was determined as 0.0755.

In the case of A16C C48G, the self-cleavage stood at 0.437.

Consider C15G G50A, for which the self-cleavage is 0.723.

For A16C G25A, the self-cleavage turned out to be 0.0405.

Regarding A16C G25U, the self-cleavage is 0.

For the variant A16C G31U, the self-cleavage is 0.

In the case of A16C U72G, the self-cleavage stood at 0.237.

C15G G25C: the self-cleavage worked out at 0.

For C15G G25U, the self-cleavage is 0.0354.

Turning to C15U C44G, the self-cleavage turned out to be 0.214.

For the variant C15U C44A, the self-cleavage came out at 0.684.

For C15G U65C, the self-cleavage stood at 0.332.

Regarding C15G U65A, the self-cleavage was determined as 0.831.

For C15G U65G, the self-cleavage came to 0.886.

Regarding A16G C24A, the self-cleavage came out at 0.569.

Take A16G C24U: the self-cleavage was 0.808.

With A16C C18A, the self-cleavage is 0.0665.

For A16G A78C, the self-cleavage was determined as 0.308.

With A16G A78G, the self-cleavage worked out at 0.465.

On to A16G A78U, for which the self-cleavage was 0.0692.

For the variant A16G C84G, the self-cleavage was found to be 0.623.

As for C15U G82C, the self-cleavage was found to be 0.166.

Regarding C15U G82U, the self-cleavage stood at 0.231.

For A16C G67A, the self-cleavage was determined as 0.506.

For the variant A16G C58G, the self-cleavage came to 0.776.

Consider A16G C58A, for which the self-cleavage amounted to 0.762.

As to A16G C36U, the self-cleavage amounted to 0.655.

In the case of A16G C36G, the self-cleavage was 0.

On to C15G U72G, for which the self-cleavage stood at 0.128.

Consider C15G U72C, for which the self-cleavage came to 0.119.

As to C15U G68C, the self-cleavage worked out at 0.597.

Consider A16G A45G, for which the self-cleavage stood at 0.772.

With A16G A45U, the self-cleavage stood at 0.712.

As to C15G G55C, the self-cleavage was 0.582.

Consider A16C C36U, for which the self-cleavage was 0.578.

A16C C36G: the self-cleavage is 0.

For A16C C36A, the self-cleavage was determined as 0.135.

For the variant C15G G28A, the self-cleavage was 0.0627.

Take C15U G17A: the self-cleavage came to 0.604.

For the variant C15U G17C, the self-cleavage is 0.0978.

On to C15U C32U, for which the self-cleavage is 0.73.

On to C15U C32A, for which the self-cleavage is 0.214.

Regarding A16C A56G, the self-cleavage was 0.776.

Regarding A16C A56C, the self-cleavage worked out at 0.639.

For the variant A16C A56U, the self-cleavage came to 0.997.

For C15G U60A, the self-cleavage turned out to be 0.185.

For C15G U60C, the self-cleavage was 0.7.

Turning to A16C A83U, the self-cleavage stood at 0.633.

Consider A16C A83C, for which the self-cleavage turned out to be 0.227.

C15U A78U: the self-cleavage amounted to 0.185.

A16C G55C: the self-cleavage was determined as 1.01.

A16C G55U: the self-cleavage came out at 0.425.

For the variant A16C G40A, the self-cleavage came out at 0.65.

Take A16C G40U: the self-cleavage is 0.73.

As for A16C C41G, the self-cleavage was 0.104.

On to A16C C41U, for which the self-cleavage was determined as 0.806.

With A16C C41A, the self-cleavage was 0.388.

As for A16C C33A, the self-cleavage turned out to be 0.208.

As to A16C C33U, the self-cleavage worked out at 0.688.

With A16C C33G, the self-cleavage stood at 0.227.

Turning to A16G C22U, the self-cleavage was 0.853.

Turning to A16C G50A, the self-cleavage stood at 0.525.

Take A16G A51U: the self-cleavage was determined as 0.906.

Regarding A16G A51G, the self-cleavage is 0.703.
